Paper doi:10.1101/2024.04.05.588253v1

B1: ssnBVMO (Tepidiforma thermophila) (protein)
chain: MTSNAPQSFDSIIVGAGFAGLYQLIRLRRAGFSARVIEAGDNVGGTWYWNRYPGARCDIESLQYQYAFDPGLAKEWRWTERYATQPEILRYIEFVADRYDLRRDIQFSTRVTAAHYDEAAARWTVHTDRGDLYSCRYLVMATGCLSVPKTPEVPGIETFEGESYHTGAWPHEGVDFTGKRVAVIGTGSSAIQSIPIIARQAAHLTVFQRTPNFSVPAHNYFLDEEQWRAAAERIAELRAEARTTSAGITGLPLNDVSALAVSEEERRREYERRWAMGGFAIGGAFNDIAINPDANETAAEFVRQKIREIVQDPETAEALCPRDYPFGTKRLCVDIAYYETFNRPNVKLVSIRDNPIAAITPKGVRLENGDEYEFDAIVYATGFDAMTGALLRIDIRGRDGLTLREKWEHGPRTYLGIQVAGFPNMFTITGPGSPSVLSNMIVSIEQHVDWVTDCLEYLRERDLATIEASPAAEDAWVNHVNEVANLTLYPRANSWYIGANVPGKPRVFMPYVGGVGAYAQKCAEVAANGYEGFILQPEPAALSR
B2: PTDH-L1-ssnBVMO (Tepidiforma thermophila) (protein)
chain: B1 chain

What was measured:
Assay in all cases: purified protein
Settings in all cases: 0.1 mM NADPH, 100 mM Tris pH 7.5, 50 °C, 2% p-dioxane
purified protein [1] = substrate: CC(=O)c1ccc(O)cc1; assay type: biochemical, Tepidiforma thermophila
purified protein [2] = substrate: CC(=O)c1cccc(O)c1; assay type: biochemical, Tepidiforma thermophila
purified protein [3] = substrate: CC(=O)CCc1ccccc1
purified protein [4] = substrate: CC(=O)c1ccccc1
purified protein [5] = substrate: CCC(=O)c1ccccc1
purified protein [6] = substrate: CCCCCC(C)=O
purified protein [7] = substrate: CCCCCCC(C)=O

Protein	Km (purified protein [1])	kcat (purified protein [1])	Km (purified protein [2])	kcat (purified protein [2])	Km (purified protein [3])	kcat (purified protein [3])	Km (purified protein [4])	kcat (purified protein [4])	Km (purified protein [5])	kcat (purified protein [5])	Km (purified protein [6])	kcat (purified protein [6])	Km (purified protein [7])	kcat (purified protein [7])
B1	1280 ± 180 µM	0.455 ± 0.026 s⁻¹	2500 ± 2000 µM	0.127 ± 0.038 s⁻¹	22 ± 12 µM	0.76 ± 0.10 s⁻¹	2520 ± 610 µM	0.335 ± 0.018 s⁻¹	373 ± 39 µM	0.152 ± 0.003 s⁻¹	3.7 ± 1.5 µM	0.455 ± 0.038 s⁻¹	20.1 ± 9.6 µM	0.671 ± 0.076 s⁻¹
B2	760 ± 120 µM	0.301 ± 0.061 s⁻¹	1590 ± 270 µM	0.120 ± 0.023 s⁻¹	–	–	3600 ± 790 µM	0.459 ± 0.081 s⁻¹	700 ± 140 µM	0.371 ± 0.057 s⁻¹	6.3 ± 3.1 µM	0.61 ± 0.11 s⁻¹	25.7 ± 2.5 µM	0.536 ± 0.078 s⁻¹
